# Results: the RNAGym collection of RNA variant scans (doi:10.1073/pnas.2313332121)
# B1: TPR t1 (parent)
# chain: GACCAAUCUGCCCUCAGAGCUCGAGAACAUCUUCGGAUGCAGAGGAGGCAGGCUUCGGUGGCGCGAUAGCGCCAACGUCCUCAACCUCCAAUGCAUCCCACCACAUGAUGAUGCCUGAAGAGCCUUGGUUUUUUG
# Variants of: B1
# Test: polymerase ribozyme fitness, log enrichment relative to wild type (log ratio); higher = more active; in vitro selection for triplet polymerase activity
# Outline: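 In triplicate, a single round of in vitro selection was run on each mutant library, PCR-built and transcribed, covering one subunit of a heterodimeric triplet polymerase ribozyme. Frozen incubation at −7 °C followed annealing with a biotinylated primer, partner subunit and triplets, and extended constructs were then gel-excised, streptavidin-captured and taken through RT-PCR. Fitness is the logarithm of genotype enrichment over wild-type enrichment, from inverse-variance-weighted replicate averages of Illumina-sequenced inputs and outputs. […] only genotypes with ≥10 input reads and ≥1 read per output were kept.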
row,Variant,polymerase ribozyme fitness (log ratio)
1,C99A U112G C114U,-6.6
2,G57U U116A,-3.39
3,C8U G51A,-1.3
4,A2U C12A G63U C104G U109C,-6.12
5,C20A A46U C72G,-4.27
6,C34U G47A,-4.25
7,A2G G45U C82A,-2.5
8,C15A A29G,-2.66
9,A26G G45A G48U,-3.98
10,C94A G110U,-2.28
11,C40A C56G G61A,-4.03
12,U9A C53U C72U U92A G127A,-3.85
13,A5C C15G G61A C114U,-6.53
14,C49U C124U U132A,0.615
15,C11G C20U G63A,-2.21
16,A5U G110A,-1
17,C8U A27U C76G U96G,-3.38
18,G17U A41C G61A C89A,-4.06
19,G39C A41U G60A,-2.76
20,G17U G69U A111G U133G,0.0717
21,C28G C56A,-1.87
22,C28A C88G G120A,-3.89
23,G77C U129A,-1.42
24,U9C C114A U129C,-1.92

row,Variant,polymerase ribozyme fitness (log ratio)
1,A68U C97A G120C,-6.59
2,C22A G44C,-4.8
3,C20A C34A A41C U109A,-4.4
4,C13G C80A C82G U130C,-4.35
5,G60U C86U A103U,-6.46
6,A41U G120U,-1.11
7,A6C G77A,-0.571
8,C8U G17U G36C G71U C82G,-4.44
9,C22U G69U,-2.26
10,U9C G69U A100U U112A C123U,2.09
11,G52C U55C U78C C82U,-0.756
12,C8G U87A,0.833
13,A103C C104A,-2.67
14,C4A A6C A46C C49A C70A C72G A84C A119U C123A U126G,-6.91
15,C89G U109A,-5.37
16,C56A G71C,-4.4
17,C15G C73A,-2.02
18,C49G C53A G57A C85A C88A C115G,-3.29
19,U78C U96G,-0.935
20,A2G G63C,-0.0882
21,C53U G60C U87A,-1.09
22,U78C C102U,-2.14
23,A18C U92G,-2.86
24,C11A C53G G60C G77C C86G,-4.21

row,Variant,polymerase ribozyme fitness (log ratio)
1,U7G U9A G120C,1.99
2,C20U G52U G61U U87C,-1.96
3,C85A A121C,0.793
4,C12A G51U G77A,-1.98
5,C13U G17A,-1.44
6,U7G C22G A24G G48U,-5.74
7,C12G U21C A29U C123U U131A,-1.87
8,A6U C12U C72U A83C G127U,-0.0511
9,A27C U67G G107A U109A C123G C124G,-6.73
10,C3G G128C,-0.539
11,G71A C73U,-2.15
12,G10A C12U U112A,1.73
13,G47C G48A,-2.94
14,A50C G63U U81A,-1.63
15,C12G C72U,0.127
16,C22G C28U A37U G48A G71A G110C,-5.6
17,A27U C49G U54C,-3.58
18,U14G C62U U78C,-2.77
19,C12U C15U,-0.154
20,C88G U131C,-0.249
21,C13U A16C G48C U59G G60U A100C A121C,-0.128
22,A46U C64U A66U,-2.06
23,C4U C13U U38A C53A,-1.25
24,C34G C73A,-5.35

row,Variant,polymerase ribozyme fitness (log ratio)
1,A5G C11U G48U G69A U131C,-3.72
2,G63C G65A G117C A119G A121C,-7.02
3,A46U U106A C124G U129G,-0.0518
4,A50U C76A G77A,-1.53
5,U33C C99G U109A,-7.26
6,C72G G128C,-2.25
7,A2G C62U A83G,-1.82
8,C8G C56A C123A,1.29
9,G71A U96A U116A,-3.94
10,A37G G69U C99A C114A,-3.09
11,C8G U54G C64U C89G,-4.42
12,C34G A50U G61C A90G G110C,-7.04
13,G51C G61U C114U,-6.08
14,U59A C102U A103C,-5.53
15,C49G U55G,-1.16
16,C13G A100C,-3.31
17,C56A C72G,-0.848
18,A37U G60C C62U,-2.01
19,G51U A91G,-5.12
20,C31U U32G G35U G61U A91C A121U,-7
21,A46U G71U G110A,-2.84
22,C13U C89G,-1.01
23,C101G G120C,-0.696
24,C3G U7G C15U U55G C56U G128U,-1.45

row,Variant,polymerase ribozyme fitness (log ratio)
1,A24G G110A U116G C124A,-6.51
2,G45A A46G A50C C89A,-3.72
3,U7C G113A,0.595
4,C101A G113A G122C,-1.6
5,C4G U21C G45A U78A C124G,0.886
6,U112A G135A,2.15
7,C11G A27U G47C A83U,-3.57
8,G61C C85U U116A C123U U129A,-6.64
9,A68G C86U,-2.68
10,C13U G110A,-0.303
11,A6U G39A A74C A91U,-2.33
12,U78C C80U,-0.608
13,C62A C79U C88G G135U,-2.35
14,C104G U106A C124G,-3.47
15,A46U C49G C56U C76U U87A,-1.97
16,C4G C80U A83C C88U,-5.05
17,A5G U54C G69U A118G U129A,-1.19
18,G39A G48A C73A A100C G120A,-0.862
19,U96G U129C,-0.569
20,G61C C80G G117C,-7.35
21,C3U A29U U109A,0.179
22,C73A U125A,-0.432
23,A6U G17U U112A G120A,-3.9
24,C72A C98A,-4.32

row,Variant,polymerase ribozyme fitness (log ratio)
1,G10A C40A C72A A111C,-1.19
2,A37G G69U,-1.08
3,C53U C98U,-1.46
4,U59C C97A U109C C114G G122U,-6.59
5,C56A C89U C102U G113U,-6.7
6,A43U C123A G128C,-2.79
7,U7G G45C G47A U59C,-1.08
8,C20U A83G C101A G117U,-5.42
9,G45A A111C,-0.541
10,U21A A27C U78G A84U C114A,-6.87
11,C3U C56G C73U,-1.31
12,C13G G120U,-0.586
13,A6U G58C G63U C64A A119U,-6.07
14,A29C G57A C62U,-3.66
15,G52A C76U,-0.303
16,A41C U106C A111C,-2.11
17,C85U C98U,-1.57
18,U78C A83C,0.0151
19,C13U C20U G63U,-2.31
20,A2C C13A G36C G120U,-1.59
21,G60U U132A,-0.036
22,A6G G48U G52C C73G,-3.58
23,G45A G63C,-0.827
24,C12A A27U G63A,-5.2

row,Variant,polymerase ribozyme fitness (log ratio)
1,G39A C64U C124A,1.06
2,A18U A75U C76G U129G,-5.7
3,C22G U112A A118U,-1.75
4,U9G U21A C97A,-4.03
5,U32C C40U C124A,1.21
6,U87C G110U,-0.496
7,C40A C89U G117A A121G,-0.101
8,C8U A103C,-4.8
9,A37U G61U G120C,0.718
10,G23U G45A C56U C98A U112G,-6.47
11,U7C C72G A84C,-0.576
12,C8G U96A,0.0383
13,C13U G47C U78C U109G,-4.45
14,A16C C53U,-2.99
15,A108U C123A,-5.15
16,C40U U109C,-4.01
17,A84C C98U,-1.5
18,A37G C88A G113U,-5.31
19,A29C C49U C72U,-4.03
20,C8A C12U A46C G93A C115A,0.651
21,C12G C89U,-0.711
22,A26U G57U,-4.04
23,C13G G110A,-1.87
